The text below walks through data of patent publication US20030078221, “High affinity nucleic acid ligands of complement system proteins” (Gilead Sciences, Inc., published 2003).

One may read the Kd as a measure of binding affinity in units of concentration. High values mean a looser complex, low ones a tighter complex. One may read the Ki as the dissociation constant of the complex between target and ligand, obtained from inhibition or displacement. A lower Ki goes with tighter binding.

Data set [1] has as its target T1, Complement C1q (UniProt P02745;P02746;P02747 P02745:23-245,P02746:28-253,P02747:29-245). The data set is described as follows: filter; MgPBS 37C; text states range 0.29-3.9 nM for best ligands. To be noted: tags: Quidel; chain copies: 6. The method, then: (§1) Individual cloned DNA was T7 transcribed with α-[³²P]-ATP and the full length [³²P]-2′-NH₂-RNA or 2′-F-RNA was gel-purified (as above). RNA was suspended at approximately 5,000 cpm per 30 μL sample (<10 pM), and aliquots were incubated with various concentrations of C1q, C3 or C5 in MgPBS for 10 minutes at 37° C. Samples were then filtered through nitrocellulose, the filters washed with buffer and dried under an infrared lamp, and counted with addition of scintillation fluid (Ecoscint A, National Diagnostics, Atlanta, Ga.). A background sample of RNA alone was run in parallel. […] Filters were washed and counted.

The target in data set [2] is T2, Complement C5 (Homo sapiens, UniProt P01031;P01031 P01031:19-673,P01031:678-1676). Description: filter; MgPBS 37C. The note with it: tags: Quidel. As for the experimental part: as §1
Sequences were grouped according to homology and function.

Data set [3] deals with T2, Complement C5. The data set is described as follows: inhibition; inhibition of C5a release, zymosan-treated human serum. The note with it: tags: Quidel. The method, then: Nucleic Acid Ligand-C5 interaction that inhibits cleavage of C5 would prevent formation of the C5b and MAC assembly. […] For this experiment, dilutions of clone C6 were incubated with whole human serum in GVB⁺⁺ (veronal-buffered saline containing calcium, magnesium and 1% gelatin) plus addition of zymosan for 30 minutes at 37° C. The samples were then quenched with EDTA-buffer and spun, and supernatants were assayed for C5a by radioimrnmunoassay (RIA) (Wagner and Hugli (1984) Anal. Biochem. 136:75).

Data set [4] deals with T2, Complement C5. Description: filter; Kd not given. To be noted: tags: Quidel.
The target of data set [5] is T1, Complement C1q. The data set is described as follows: filter; above background; SEQ 20 in listing differs from Table 2. The note with it: tags: Quidel; chain copies: 6.

T1 sequence (P02745 23-245, chain 1 of 3): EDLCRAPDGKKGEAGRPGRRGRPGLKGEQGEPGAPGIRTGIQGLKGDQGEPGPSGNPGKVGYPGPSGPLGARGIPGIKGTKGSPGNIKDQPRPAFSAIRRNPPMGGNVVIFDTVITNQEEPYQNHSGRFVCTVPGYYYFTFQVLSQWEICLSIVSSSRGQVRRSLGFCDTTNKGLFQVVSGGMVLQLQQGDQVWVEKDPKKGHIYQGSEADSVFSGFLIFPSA
T1 sequence (P02746 28-253, chain 2 of 3): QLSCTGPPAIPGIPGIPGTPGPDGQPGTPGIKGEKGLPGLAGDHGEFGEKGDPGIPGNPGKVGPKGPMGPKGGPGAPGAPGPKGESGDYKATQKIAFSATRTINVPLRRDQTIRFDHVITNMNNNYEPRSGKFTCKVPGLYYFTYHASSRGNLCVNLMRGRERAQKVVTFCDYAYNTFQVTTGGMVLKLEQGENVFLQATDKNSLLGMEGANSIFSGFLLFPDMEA
T1 sequence (P02747 29-245, chain 3 of 3): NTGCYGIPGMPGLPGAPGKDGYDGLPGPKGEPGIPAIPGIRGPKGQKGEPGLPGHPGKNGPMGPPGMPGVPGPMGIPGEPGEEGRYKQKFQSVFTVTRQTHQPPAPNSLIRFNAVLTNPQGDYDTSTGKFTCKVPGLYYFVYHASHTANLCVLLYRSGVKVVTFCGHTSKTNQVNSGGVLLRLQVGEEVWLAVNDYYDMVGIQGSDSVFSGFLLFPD

B1: C1q clone 23 (ssRNA)
RNA: GGGAGGACGAUGCGGCACUCACCUUCAUAUUGGCCGCCAUCCCCAGGGUUGAGCCCAGACACAGCAGACGACUCGCCCGA
modifications: 2'-NH2 pyrimidines
Regarding B1, the Kd with Complement C1q [1] amounted to 23 nM.

B2: C6 (ssRNA)
RNA: GGGAGGACGAUGCGGUCUCAUGCGUCGAGUGUGAGUUUACCUUCGUCAGACGACUCGCCCGA
modifications: 2'-F pyrimidines
Regarding B2, binding in the data set with Complement C5 [2] was put at a Kd of 30 nM. The molecule also returned a Ki with Complement C5 [3] of roughly 100 nM.

B3: C6 42mer truncate (ssRNA)
RNA: GACGAUGCGGUCUCAUGCGUCGAGUGUGAGUUUACCUUCGUC
modifications: 2'-F pyrimidines
As for B3, the binding result with Complement C5 [4] is “binds”.

B4: C1q clone 67 (ssRNA)
RNA: GGGAGGACGAUGCGGCAGACGACUCGCCCGAGGGGAUCCCCCGGGCCUGCAGGAAUUCGAUAUCAGACGACUCGCCCGA
modifications: 2'-NH2 pyrimidines
On to B4, for which the binding result with Complement C1q [5] is listed as “binds”.
